Reference: the supplement of paper PMC9170038

System: MS2 coat protein
Experiment: apparent KD of MS2 coat protein; designed switch direction (-1 OFF switch, 1 ON switch): -1; higher = weaker reporter binding
In short: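 Designed RNA switches were transcribed on Illumina chips by stalled E. coli RNA polymerase and titrated with SNAP-549-labelled MS2 coat protein from 0.7 or 1.5 nM, doubling to 3 µM. Step length ran from 0.8–1.5 h at the lowest concentration to 10–20 min at the highest. The apparent KD is the median over clusters for each design, from curve-fitted normalised cluster fluorescence.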

[1] = Eterna round: R95, input ligand: microRNA oligo, concentration not stated
[2] = input ligand: microRNA oligo, concentration not stated

| Sequence | apparent KD of MS2 coat protein (input ligand: FMN 200 uM) | apparent KD of MS2 coat protein (input ligand: none) | apparent KD of MS2 coat protein [1] | also measured |
| --- | --- | --- | --- | --- |
| UAAUUAAUUAAUUAAUAAUACAUGAGGAUCACCCAUGUAGAUCCUACAUACAAGCUUUGUAGCUCGUCUUAUAAUUA [Stov1/3-A1] (Eterna round: R97, puzzle: Sensor, turn-off variant 1) | 214 nM | 337 nM |  |  |
| AAUAACAGAGGAUAUACUGUUUUAUGUGUUUGUUAUUUUGAACAUGAGGAUCACCCAUGUAGAAGGCUGAAUGA [JMF 64] (puzzle: Exclusion 2) |  |  | 27.1 nM |  |
| UUUAAGGAAGGAUAUACAAUAUAAAUAAUAUCCUCAUUAUUACAUGAGGAUCACCCAUGUAGAAGGUCCAAUUU [Mat - Exclusion 2 - Mod of Hog - D89] (puzzle: Exclusion 2) |  |  | 137 nM |  |
| GCCCGGCGUGUAGGAUAUGGUUCCGUUUCGGUUCCAGAAGGACAUGAGGAUCACCCAUGUGCCUGUCGUCGGUCGUCACCGGGC [salish99_ExNG1_r04_401] (Eterna round: R96, puzzle: Exclusion NG 1) | 11.1 nM | 12.4 nM |  | apparent KD of MS2 coat protein [2]: 9.87 nM |
| AAGGAUAGAGGAUAUACAUAGAUACAGAUUCAUGUAGACCUACAUGAGGAUCACCCAUGUAGAAGGCUAUCCUA [Fiskers Ex 2 - 11] (puzzle: Exclusion 2) |  |  | 16 nM |  |
| CAGUACUGAGGAUAUACAUGAGGAUCACCCAUGUGUUCCAGCUAGGAGACUAGCAAAAGUAGAAGGCAGUACUG [salish99_ex3_r3_074] (puzzle: Exclusion 3) |  |  | 23.5 nM |  |
| GCCGAUUAAGUGAGGAUAUACCUAUGGAUACAUAGGUAGAAGGCACAUGAGGAUCACCCAUGUUCCUCAACGGC [Fiskers BMX 4 - 6] (puzzle: Brourd's mod of Exclusion 4) |  |  | 15 nM |  |
| ACAAGCUUUUGCUCGUCUUACAUGAGGAUCACCCAUGUCGGGAGCAUGCAUACGUCCAGCAUCUGGACCGUAGCAGA [-25.7, -49.8 kcal, 25% A] (Eterna round: R97, puzzle: Sensor, turn-off variant 1) | 16.3 nM | 18.1 nM |  |  |
| GACUGCCGAGGAUAUACAUGAGGAUCACCCAUGUGCUUCAGCAUUUUUUGAUGCAUGGGUAGAAGGCGGUAGUU [LRO-Excl3-15] (puzzle: Exclusion 3) |  |  | 341 nM |  |
| UCAGGUGCAGGAUAUACAUGAGGAUCACCCAUGUAGAUCAACCAGCGAUAGCUGGAAUGUAGAAGGGCACCUGA [E3/5-D2] (Eterna round: R97, puzzle: Exclusion 3) | 100 nM | 19.7 nM |  |  |
| GCCCGGCCUGUAGGAUAUGGUUCCGUUUCGGUUCCAGAAGGACACGAGGAUACAUGAGGAUCACCCAUGUGCUCGUCACCGGGC [salish99_ExNG1_r04_403] (Eterna round: R96, puzzle: Exclusion NG 1) | 8.67 nM | 11.3 nM |  | apparent KD of MS2 coat protein [2]: 8.6 nM |
| GUUUUGUGAGGAUAUCCCUAUCAUCUAGCUGACUAGAUGGUGGAGAAGGCACAUGAGGAUCACCCAUGUGGGAG [Eternabot (L1) Solution 3] (Eterna round: R97, puzzle: Exclusion 4) | 111 nM | 90.1 nM |  |  |
| GUAAAACAUGAGGAUCACCCAUGUCAGGAUAUACGAUUCCACCCUAACUGCGUGGAACGUAGAAGGGACAUAGG [Exclusion 1 (MOD6.1 Esqu)] (Eterna round: R97, puzzle: Exclusion 1) | 57.9 nM | 221 nM |  |  |
| UUUUAACAUGAGGAUCACCCAUGUGAGGAUAUCGAAUUUUUUAUUAAUAUUAAUAAAACGAGAAGGCACAUUUU [JMF 16] (puzzle: Exclusion 1) |  |  | 55.2 nM |  |
| UUUAAUUGUCAGAUGGGUGACAUGAGGAUCACCCAUGUCACAAGCUUUUUGUUCGUCUUAUAAUUAACCCAUCUGAC [Stov1/11-B1] (Eterna round: R97, puzzle: Sensor, turn-off variant 1) | 14 nM | 13.8 nM |  |  |
| CAUGGCACGUAGGAUAUCUCGCAGCCCGGCUGCAGAGAAGGACGUACAUGAGGAUCACCCAUGUAUGAUCCAAA [Laquus] (puzzle: Exclusion 6) |  |  | 24.1 nM |  |
| AGUAACAGAGGAUAUACUAUUUUAUGUGUUUGUUAUUUUAAACAUGAGGAUCACCCAUGUAGAAGGCUGAAUAA [JMF 84] (puzzle: Exclusion 2) |  |  | 21 nM |  |
| ACAUGAGGAUCACCCAUGUGACCACGAUGGCUGAUGUAGAGAUAGGAUAUGUGUGAAUAUCUAUCACAGAAGGAUCUUGACUGG [Deportation 53 - Jieux - Exclusion NG 3] (Eterna round: R96, puzzle: Exclusion NG 3) | 25.2 nM | 28.5 nM |  | apparent KD of MS2 coat protein [2]: 22.4 nM |
| UAUAUAUAGUAAGGAUAUAUAUUUUUUUUUUAAAUAGAAGGUACAGACAUGAGGAUCACCCAUGUUAUAAUAUGGACAUGUGGA [JMF's Solution 3] (Eterna round: R96, puzzle: Exclusion NG 1) |  |  |  | apparent KD of MS2 coat protein [2]: 113 nM |

| Sequence | apparent KD of MS2 coat protein (input ligand: FMN 200 uM) | apparent KD of MS2 coat protein (input ligand: none) | apparent KD of MS2 coat protein [1] | also measured |
| --- | --- | --- | --- | --- |
| GCCGUCAAUGUGAGGAUAUGCCUAUGGAUACGUAGGCAGAAGGCACAUGAGGAUCACCCAUGUCCAAAGACGGC [JL-BMX4-4.31 Eli mod] (Eterna round: R97, puzzle: Brourd's mod of Exclusion 4) | 2170 nM | 200 nM |  |  |
| CACUGGACAGGAUAUGUUCUUGAGCACUUGAGGAUCACCCAAGUCAUCAAGAACUCAGGCACAGAAGGGUUUAUGC [salish99_ex5_r4_012] (Eterna round: R97, puzzle: Exclusion 5) | 24.7 nM | 14 nM |  |  |
| CUCUUGUCAGGAUAUCUAAGCUGCCUCCCAGUAGCCGAAUUAGAGAAGGGACAUGAGGAUCACCCAUGUAAACG [Enaeren] (puzzle: Exclusion 4) |  |  | 106 nM |  |
| AUUUUGUGAGGAUAUUAGUUGUAGAAAAUUGUUAGUAUAGCUGAGAAGGCACAUGAGGAUCACCCAUGUACAAC [JR_Ex4_Sub040] (Eterna round: R97, puzzle: Exclusion 4) | 31.1 nM | 18.1 nM |  |  |
| CGUGGACAUAACAAGCUUUACAUGAGGAUCACCCAUGUGAUCAUGCUCGUCUUAUGGUCCACGAAUUAAUUAAUUAG [Stov1/6-C2] (Eterna round: R97, puzzle: Sensor, turn-off variant 1) | 19.2 nM | 18.3 nM |  |  |
| UUCCUGUCAGGAUAUGACUAGAUGCACGUUAGUGUGUUUACUUAGAAGGGACAUGAGGAUCACCCAUGUAGUCC [Bring Us a Shrubbery-16] (puzzle: Exclusion 4) |  |  | 31.7 nM |  |
| AUCAUGUAAGGAUAUCUUACAUGUGACUUCGGUCACUGUCAAGAGAAGGUACAUGAGGAUCACCCAUGUAUGAC [Ex4-3: 51] (puzzle: Exclusion 4) |  |  | 16.8 nM |  |
| UCUUUACAUGAGGAUCACCCAUGUGAGGAUAUGGUUUCGCUGGCCGUAGCCAGUGGAACCAGAAGGCGCGUGAU [Mat - Exclusion 1 - JL Mod - D25] (Eterna round: R97, puzzle: Exclusion 1) | 55.1 nM | 70.9 nM |  |  |
| UUGUUGUAUGUAGGAUAUGCGUGUUAUUAUUAUGCAGAAGGACAUGAGGAUCACCCAUGUAUAUUAUUAUUAUAUGUUAUAUAU [Title] (Eterna round: R96, puzzle: Exclusion NG 1) |  |  |  | apparent KD of MS2 coat protein [2]: 17.6 nM |
| GAUUAACAUGAGGAUCACCCAUGUGAGGAUAUGGACUUGCCCACUUUCCCAUUAGAGUCUAGAAGGCGCAUCUG [1986#24] (Eterna round: R97, puzzle: Exclusion 1) | 37.2 nM | 37.9 nM |  |  |
| AAACCUUGAGGAUAUACAUAACAACAAAGCCUCACGUGCCAACAUGAGGAUCACCCAUGUAGAAGGCAGGCCAA [Mod R3 Insanara 11 - Jieux - Exclusion 2] (Eterna round: R97, puzzle: Exclusion 2) | 15.6 nM | 12.7 nM |  |  |
| CAUAUAGUAGUCAGGAUAUGCGAAUAUAUAAUUAAGUAGAAGGGACAUGAGGAUCACCCAUGUAUAUUGUAAAG [EX-4 Malc #2] (puzzle: Brourd's mod of Exclusion 4) |  |  | 26.1 nM | apparent KD of MS2 coat protein (Eterna round: R95, input ligand: FMN 200 uM): 26.9 nM; apparent KD of MS2 coat protein (Eterna round: R95, input ligand: none): 28.4 nM |
| AGAUGCUCAAGUCGACAUGAGGAUCACCCAUGUACAGUUAAUGAGGAUAUCUGAGAUAAAUAAUAGGAGAAGGCGUGAACAUGA [Ex NG3 #9] (Eterna round: R96, puzzle: Exclusion NG 3) | 25.9 nM | 34.9 nM |  | apparent KD of MS2 coat protein [2]: 20.3 nM |
| AGUCGGCGAGGAUAUACAUGAGGAUCACCCAUGUGAUAGAGUGCACGCGUACGUGUACGUAGAAGGCGCUGACA [Mat - Exclusion 3 - Mod of JL D95] (puzzle: Exclusion 3) |  |  | 12.6 nM |  |
| AGGUGUAGAGGAUAUCUAUCCUCCCACAUGAGGAUCACCCAUGUCCUGGUCACCAAGGACGGAGAAGGCUACACCA [Omei Ex5 D19] (Eterna round: R97, puzzle: Exclusion 5) | 153 nM | 292 nM |  |  |
| AUAGUCUGGCAAGGAUAUAGGAAAGGAAGUGUACUAGAAGGUGCGCAGACAUGAGGAUCACCCAUGUGAGCCGACGAAAUAAUA [PowerStrip EXNG 1.17] (Eterna round: R96, puzzle: Exclusion NG 1) | 523 nM | 141 nM |  | apparent KD of MS2 coat protein [2]: 88.5 nM |
| CAAUUCUGAGGAUAUGUGCCUCUGGACAUGAGGAUCACCCAUGUGGAGGCUGUAUGGGAGGCAGAAGGUAGAGAUC [Eternabot (L1) Solution 7] (Eterna round: R97, puzzle: Exclusion 5) | 16.4 nM | 18.2 nM |  |  |
| GAGAAACAUGAGGAUCACCCAUGUGAGGAUAUGAGCACGCCGGUGACGGUGAUAAGAAUCAGAAGGCACAUUAA [Mat - Exclusion 1 - JL Mod - D34] (Eterna round: R97, puzzle: Exclusion 1) | 95.7 nM | 38.8 nM |  |  |
